Holding throughout (experiment): SEC; SEC-HPLC, Superose 6, PBS pH 7.4, samples at 2 mg/mL; 24-mer assembly
Assay [1] has as its target human H-chain ferritin mutant A (Q14A/D15A/R22A) (human).
The target of assay [2] is human H-chain ferritin mutant B (F81A/Q83A) (human).
In assay [3] the target is human H-chain ferritin mutant C (Q14A/D15A/R22A/F81A/Q83A) (human).
For assay [4], the target named is human L-chain ferritin mutant D (S5T/T14Q/S22R/L81F/D116E/A119K/A123D following H-Ft numbering) (human).

“human H-chain ferritin mutant A (Q14A/D15A/R22A) (natural protein)”: in assay [1], the stoichiometry N is 24.

Take “human H-chain ferritin mutant B (F81A/Q83A) (natural protein)”: the stoichiometry N in assay [2] came to 24. In assay [3], “human H-chain ferritin mutant C (Q14A/D15A/R22A/F81A/Q83A) (natural protein)” registered a stoichiometry N of 24.

Regarding “human L-chain ferritin mutant D (S5T/T14Q/S22R/L81F/D116E/A119K/A123D following H-Ft numbering) (natural protein)”, the stoichiometry N in assay [4] is 24.

Source of the values: PMC6408514.
